Test results as given in patent US20220160939A1, “SELF-ASSEMBLING PEPTIDES AS BRONCHIAL OBSTRUCTION AGENTS” (3-D MATRIX, LTD., priority 2014, published 2022).
Where no end group is shown, it is not given here.

Tests used:
Format in all cases: physicochemical
[1] = Rheological properties of pH adjusted peptide solutions; conditions: for rheological properties of solutions at pH 3.4: pH adjusted vs not adjusted, KLD12 1%, IEIK13 1%, PuraMatrix 1% and 2.5%
Protocol: Based on the visual observation of the effect of pH level on the properties of the peptide solutions, the effect on the rheological properties of the peptide solutions after adjusting their pH level to 3.4 (PuraMatrix® (SEQ ID NO:1) and KLD12 (SEQ ID NO:3)) or 3.7 (IEIK13 (SEQ ID NO:2)) was evaluated. If the pH levels of peptide solutions are higher than 3.5 (PuraMatrix® (SEQ ID NO:1) and KLD12 (SEQ ID NO:3)) or 3.7 (IEIK13 (SEQ ID NO:2)), the peptide solution began phase separation becoming cloudy. The rheological properties of PuraMatrix® (SEQ ID NO:1), KLD12 (SEQ ID NO:3) and IEIK13 (SEQ ID NO:2) solutions were higher at pH 3.4. The results are shown in FIG. 2 for KLD12 (SEQ ID NO:3) 1%, FIG. 3 for IEIK13 (SEQ ID NO:2) 1%, and FIGS. 4-5 for PuraMatrix® (SEQ ID NO:1) 1% and 2.5%, respectively. Stress sweep tests were performed at 10 rad/s. Frequency sweep tests were performed at 1 Pa.
Based on the results of the effect on the rheological properties of the peptide solutions after adjusting their pH level to 3.4 (PuraMatrix® (SEQ ID NO:1) and KLD12 (SEQ ID NO:3)) or 3.7 (IEIK13 (SEQ ID NO:2)), the effect on the rheological properties of the peptide solutions at various pH levels was evaluated. […] The rheological properties of peptides were evaluated at various concentrations using a rheometer (DHR-1, TA Instruments) with 20 mm plates. The results are shown in FIG. 6A for PuraMatrix® (SEQ ID NO:1) 2.5% solution and FIG. 6B for IEIK13 (SEQ ID NO:2) 1.5% solution, respectively. Frequency sweep tests were performed from 1 rad/sec to 10 rad/sec at 1 Pa and the storage modulus at 1 rad/sec was selected for data.

[2] = pH and appearance of 2.5% peptide solutions after adding 0.1 N NaOH
Protocol: To adjust the pH level of the peptide solutions by way of example, 0.1 N NaOH was added to 2 mL of 2.5% peptide solutions and their pH and appearance were measured.

[3] = Salt ionic strength plus pH adjustment: appearance and rheological properties; conditions: for appearance of peptide solutions: 0.9% NaCl (ionic strength: 0.15 M) at pH 3.4 adjusted with NaOH
From the text: In accordance with one or more embodiments, IEIK13 (SEQ ID NO:2), KLD12 (SEQ ID NO:3), and PuraMatrix® (SEQ ID NO:1) may be dissolved both in salt buffer such as NaCl and at an elevated pH level adjusted with alkali salt buffer such as NaOH to keep their salt ionic strength under their critical salt points as well as their pH level to about 2.5˜4.0, so that they may have stiffer properties. With respect to PuraMatrix® (SEQ ID NO:1), […] and IEIK13 (SEQ ID NO:2), the peptide solutions are still clear with 0.9% NaCl (ionic strength: 0.15 M) at pH 3.4 adjusted with NaOH. The rheological property of PuraMatrix® (SEQ ID NO:1) with 0.9% NaCl (ionic strength: 0.15 M) at pH 3.4 was stiffer than those of PuraMatrix® (SEQ ID NO:1) control and PuraMatrix® (SEQ ID NO:1) with only NaCl 0.9%. The effect of salt ionic strength and pH adjustment on the rheological properties of PuraMatrix® (SEQ ID NO:1) 2.5% solution are shown in FIG. 20. Frequency sweep tests were performed from 1 rad/sec to 10 rad/sec at 1 Pa and the storage modulus at 1 rad/sec was selected for data.

[4] = Gelation of peptide solutions after saline buffer treatment, time sweep test; conditions: saline buffer (0.15 M of NaCl), no pH change; IEIK13 1.5%, KLD12 1.5%, PuraMatrix 2.5%
Protocol: The effect of salt ionic strength level surrounding peptides in solution on the properties of peptide solutions was evaluated to identify the possibility of peptide gelation when the peptide solution is placed into the environment where salt ionic strength level is high. […] Without pH effect, the effect of saline treatment on gelation of peptide solutions were evaluated. […] This is because IEIK13 (SEQ ID NO:2) is much more sensitive to salt ionic strength levels. Fast gelation of IEIK13 (SEQ ID NO:2) at the salt ionic strength level similar to body fluid isotonic salt level may generally improve its function and gelation speed for various clinical applications. The results are shown in FIG. 19 for IEIK13 (SEQ ID NO:2), KLD12 (SEQ ID NO:3) and PuraMatrix® (SEQ ID NO:1) solutions. Time sweep tests were performed at 1 rad/sec and at 1 Pa with 20 mm plates and 500 μm gap distance. […]

[5] = 0.1N NaOH 150 μL/mL added in 2.5% solution, conc. 2.17%
[6] = 0.1N NaOH 200 μL/mL added in 2.5% solution, conc. 2.08%
[7] = 0.1N NaOH 250 μL/mL added in 2.5% solution, conc. 2.0%
[8] = 0.1N NaOH 275 μL/mL added in 2.5% solution, conc. 1.96%
[9] = 0.1N NaOH 300 μL/mL added in 2.5% solution, conc. 1.92%
[10] = 0.1N NaOH 350 μL/mL added in 2.5% solution, conc. 1.85%
[11] = NaOH volume and conc. not given
[12] = peptide solution pH 7.0, NaOH volume and conc. not given

Row | Substance | rheological properties of solutions at pH 3.4 [1] | Appearance [2, 5] | Appearance [2, 6] | Appearance [2, 7] | Appearance [2, 8] | Appearance [2, 9] | Appearance [2, 10] | Peptide solution pH [2, 11] | Appearance [2, 12] | appearance of peptide solutions [3] | rheological property versus control and versus only NaCl 0.9% ([3]; 2.5% solution, 0.9% NaCl (ionic strength: 0.15 M) at pH 3.4) | gelation after saline buffer treatment [4] | pH level above which the peptide solution began phase separation becoming cloudy [1] | Appearance ([2]; 0.1N NaOH 400 μL/mL added in 2.5% solution, conc. 1.79%) | Appearance ([2]; 0.1N NaOH 225 μL/mL added in 2.5% solution, conc. 2.04%)
1 | Arg-Ala-Asp-Ala-Arg-Ala-Asp-Ala-Arg-Ala-Asp-Ala-Arg-Ala-Asp-Ala [PuraMatrix ®] | higher | Clear, thick, stiffer gel | Clear, thick, stiffer gel | Clear, thick, stiffer gel | Clear, thick, stiffer gel | Slightly cloudy, brittle gel | Cloudy, phase-separated | 7.0 | Cloudy, phase-separated | still clear | stiffer | no or negligible gelation |  |  | 
2 | Ile-Glu-Ile-Lys-Ile-Glu-Ile-Lys-Ile-Glu-Ile-Lys-Ile [IEIK13] | higher | Clear, thick gel, stiffer gel | Clear, thick gel, stiffer gel | Clear, thick gel, stiffer gel | Clear, thick, stiffer gel | Slightly cloudy, brittle gel |  | 7.0 | Cloudy, phase-separated | still clear |  | fast gelation | > 3.7 | Cloudy, phase-separated | 
3 | KLDLKLDLKLDL [KLD12] | higher | Clear, thick and stiffer gel | Clear, thick and stiffer gel | Slightly cloudy, brittle gel |  |  | Cloudy, phase-separated | 7.0 | Cloudy, phase-separated | still clear |  | no or negligible gelation |  |  | Clear, thick and stiffer gel
